Source: article PMC10234888, “Upregulation of glycolytic enzyme PFKFB3 by deubiquitinase OTUD4 promotes cardiac fibrosis post myocardial infarction” (Journal of Molecular Medicine (Berlin, Germany), 2023)

Target: T1, OTUD4 human recombinant protein (human, UniProt Q01804 1-1114)
T1 construct: deubiquitinase OTUD4, human, recombinant protein from Origene; No catalogue number is printed; also called deubiquitinase OTUD4; source: bought: Origene Technologies, Inc
T1 sequence (looked up): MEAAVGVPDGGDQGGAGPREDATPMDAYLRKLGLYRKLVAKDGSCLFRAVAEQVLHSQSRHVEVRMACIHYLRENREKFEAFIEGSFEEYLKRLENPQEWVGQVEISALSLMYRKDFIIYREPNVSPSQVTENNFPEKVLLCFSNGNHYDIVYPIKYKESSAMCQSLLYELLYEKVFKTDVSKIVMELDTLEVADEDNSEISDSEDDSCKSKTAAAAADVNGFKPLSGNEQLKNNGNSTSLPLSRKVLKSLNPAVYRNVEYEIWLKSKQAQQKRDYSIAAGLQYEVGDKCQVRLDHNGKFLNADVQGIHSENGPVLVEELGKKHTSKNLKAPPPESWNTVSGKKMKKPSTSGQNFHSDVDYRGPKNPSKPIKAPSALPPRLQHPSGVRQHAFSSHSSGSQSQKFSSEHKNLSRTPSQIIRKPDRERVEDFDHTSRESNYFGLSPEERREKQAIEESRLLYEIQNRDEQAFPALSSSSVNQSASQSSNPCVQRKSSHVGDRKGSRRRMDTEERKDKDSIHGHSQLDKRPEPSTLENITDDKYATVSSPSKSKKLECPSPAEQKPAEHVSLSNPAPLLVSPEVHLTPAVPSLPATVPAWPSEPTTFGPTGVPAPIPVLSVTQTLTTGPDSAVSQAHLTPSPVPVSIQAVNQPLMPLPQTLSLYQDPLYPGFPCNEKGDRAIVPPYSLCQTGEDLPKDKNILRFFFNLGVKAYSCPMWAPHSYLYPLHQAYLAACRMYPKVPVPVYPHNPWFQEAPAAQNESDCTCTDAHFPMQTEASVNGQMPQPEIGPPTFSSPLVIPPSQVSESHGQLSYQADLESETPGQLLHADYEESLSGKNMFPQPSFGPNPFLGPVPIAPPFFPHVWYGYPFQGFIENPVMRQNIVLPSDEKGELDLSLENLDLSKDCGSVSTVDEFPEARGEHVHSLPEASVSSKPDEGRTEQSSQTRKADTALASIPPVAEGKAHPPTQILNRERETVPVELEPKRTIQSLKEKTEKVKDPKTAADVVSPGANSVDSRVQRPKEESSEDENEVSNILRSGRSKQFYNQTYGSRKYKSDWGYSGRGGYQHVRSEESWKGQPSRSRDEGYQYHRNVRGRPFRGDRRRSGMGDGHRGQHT
Test: SPR; Biacore T200; OTUD4 on a CM5 chip by amine coupling; various concentrations of PFKFB3 injected over the OTUD4 surface
Details: both partners purified

- Kd: 250 nM
B1: human recombinant PFKFB3 protein (enzyme, UniProt Q16875 1-520, looked up)
chain: MPLELTQSRVQKIWVPVDHRPSLPRSCGPKLTNSPTVIVMVGLPARGKTYISKKLTRYLNWIGVPTKVFNVGEYRREAVKQYSSYNFFRPDNEEAMKVRKQCALAALRDVKSYLAKEGGQIAVFDATNTTRERRHMILHFAKENDFKAFFIESVCDDPTVVASNIMEVKISSPDYKDCNSAEAMDDFMKRISCYEASYQPLDPDKCDRDLSLIKVIDVGRRFLVNRVQDHIQSRIVYYLMNIHVQPRTIYLCRHGENEHNLQGRIGGDSGLSSRGKKFASALSKFVEEQNLKDLRVWTSQLKSTIQTAEALRLPYEQWKALNEIDAGVCEELTYEEIRDTYPEEYALREQDKYYYRYPTGESYQDLVQRLEPVIMELERQENVLVICHQAVLRCLLAYFLDKSAEEMPYLKCPLHTVLKLTPVAYGCRVESIYLNVESVCTHRERSEDAKKGPNPLMRRNSVTPLASPEPTKKPRINSFEEHVASTSAALPSCLPPEVPTQLPGQNMKGSRSSADSSRKH
notes: phosphofructokinase-2/fructose-2,6-bisphosphatase 3 (PFKFB3), human, recombinant protein from Origene; No catalogue number is printed; also called phosphofructokinase-2/fructose-2,6-bisphosphatase 3; source: bought: Origene
